Data reported in patent US20230167458A1, “FORSKOLIN-INDUCIBLE PROMOTERS AND HYPOXIA-INDUCIBLE PROMOTERS” (ASKLEPIOS BIOPHARMACEUTICAL, INC., priority 2020, published 2023).

How the values were obtained:
CHO-GSK1SV cell line = experiment: SEAP expression and cell number in normoxia vs 24 h hypoxia, stably transfected CHO-GS-KSV1; assay type: cell-based, chinese hamster; details: stably integrated CHO-GSK1SV
Experimental: Cell suspensions of 6×10^5 cells per mL are incubated on an orbital shaker set at 8% CO2, 20% O2, 37° C., 85% relative humidity and 140 rpm overnight. 2.86×10^7 cells were centrifuged at 200 g for 3 minutes. Media is then aspirated and cell pellet resuspended in 2 mL fresh CD-CHO media to obtain a concentration of 1.43×10^7 cells per mL. 700 μL of cell suspension was added to each of two electroporation cuvettes each containing […] of linearised DNA in 100 μL of sterile TE buffer (Thermofisher, 12090015). Each cuvette was electroporated, delivering a single pulse of 300V, […] with resistance to infinity. Immediately after delivery of pulse electroplated cells were transferred to Erlenmeyer 125 mL flask containing 20 mL of CD-CHO media pre-warmed to 37° C. Electroporated cells from two cuvettes are combined into a single 125 mL flask to generate one pool of cells. Cells are cultured on an orbital shaker set at 8% CO2, 20% 02, 37° C., 85% relative humidity and 140 rpm. Cells are transferred to fresh CD-CHO media 24 hours after transfection and cell cultures monitored and given fresh CD-CHO media every 2-4 days. Usually after about 10-14 days cell numbers will be high enough to start passaging. Cells were selected at 14 days and then expanded. Induction was performed once doubling time had returned to approx. 24 hrs. The cells assayed in this example were at passage number 15, 17, 19 and 21.
The transfected DNA was pXC-17.4 expression vector (Lonza Biologics plc) where one of the promoter constructs (RTV-015, HYBT, RTV-016, HV3C) or a control promoter (CMV-IE) have been cloned upstream of the SEAP gene, which had been cloned into the multiple cloning site within the vector expression cassette. Promoters were closed into the pXC-17.4 vector using Gibson assembly. The pXC-17.4 expression vector is designed for making stable cell lines in the CHO-GSK1SV cell line as it contains the […] gene which has been knocked out of the cell line. Therefore, selection of cells in glutamine drop-out medium will select for cells that have stably integrated the plasmid.
Stably transfected CHO-GS cells were seeded at 500,000 cells/ml and allowed to grow for 24 hrs, at this point the cells were counted and placed under hypoxic conditions as previously described. After 24 hrs, the cell numbers and the expression of SEAP was measured.
SEAP Reporter Gene Assay, chemiluminescent (Roche, CAT #11 779 842 001) was used to measured SEAP activity as per manufacturers protocol. All reagents and samples were fully pre-equilibrated at room temperature. Culture supernatant was collected from the stably transfected CHO-GS at the specific time points (0 h and 24 h). The supernatant was diluted 1:4 in dilution buffer and heat treated at 65° C. for 30 minutes. The heat-treated sample was then centrifuged for 30 s at maximum speed. 50 μl of the heat-treated sample was then added to 5 μl of inactivation buffer and incubated for 5 min at room temperature. 50 μl of substrate reagent was then added and incubated for 10 min at room temperature. The signal is then read at 477 nm and compared to a calibration curve. SEAP expression was normalized against cell number to ensure that the increase in activity was not due to increased cell numbers and was true induction. The result of this experiment can be seen in FIG. 16 and FIG. 17.

HEK293-T = experiment: Luciferase expression in normoxia vs 24 h hypoxia, transiently transfected HEK293-T; assay type: cell-based, human; details: for relative rank of promoter strength: 24 h hypoxia vs 24 h normoxia
Experimental: HEK293-T are seeded at a density of 20%. Once they reached a confluence between 60 and 80%, the media is changed with DMEM (#21885-025—Thermo Scientific) supplemented with 10% FBS (Gibco, 26140). After 3 hours, the cells were transfected by a transfection mix. The transfection mix is prepared by adding DNA ([…] per 6 well plate) and PEI 25 kDA (#23966-1—Polyscience) in a ratio of 1:3 in sterile DPBS (#14190169—ThermoFisher Scientific). After mixing, the transfection mix is incubated at room temperature for 30 minutes and then added directly to the cells. After 16 to 18 h post transfection, the media is changed to DMEM+2% FBS. The transfected DNA was one of the vectors where the promoter constructs (RTV-015, HYBT, RTV-016, HV3C) or a control promoter (CMV-IE) were used to drive luciferase expression and β-galactosidase containing pcDNA6 plasmid. The β-galactosidase containing plasmid was used as internal control for transfection efficiency (Thermofisher, V22020).
After transfection the cells were incubated for 24 hrs in normoxic conditions (20% oxygen). Induction of the promoters was assessed by using luciferase activity after 24 hrs in normoxia or hypoxia (5% oxygen, 10% carbon dioxide and 85% nitrogen). Hypoxia was achieved by gas displacement in a sealed hypoxia chamber.
Luciferase activity was measured using LARII (Dual Luciferase Reporter 1000 assay system, Promega, E1980).
Media was removed from the cells at the respective time point (0, 3, 5, 24 hrs after induction). The cells were washed once in 300 μl of DPBS. Cells were lysed by adding 100 μl of passive lysis buffer to the cells and incubation with rocking for 15 minutes. The cell debris was pelleted by centrifugation of the plate at max speed in a benchtop centrifuge for 1 min. 10 μl of supernatant was pipetted into white 96-well plate and luminescence measured by addition of 50 μl of LARII substrate.
β-galactosidase activity was measured as per manufacturer's instructions (Mammalian βGalactosidase Assay Kit, 75707/75710, Thermo Scientific) using 25 μl of lysate. 25 μl of lysate was transferred into a microplate well and mixed with 25 μl of β-galactosidase Assay Reagent, equilibrated to room temperature. The mixture was incubated at 37° C. for 30 min and absorbance measured at 405 nm.
Luciferase readouts were normalised to β-galactosidase to produce normalised relative luminometer units (RLUs).

B1: RTV-015: synthetic hypoxia-inducible promoter, SEQ ID NO: 81; 5 HRE1 elements spaced by 40 bp and minimal promoter MP1 (nucleic acid)
DNA: ACGTGCGATGATGCGTAGCTAGTAGTGATGATGCGTAGCTAGTAGTACGTGCGATGATGCGTAGCTAGTAGTGATGATGCGTAGCTAGTAGTACGTGCGATGATGCGTAGCTAGTAGTGATGATGCGTAGCTAGTAGTACGTGCGATGATGCGTAGCTAGTAGTGATGATGCGTAGCTAGTAGTACGTGCTTGGTACCATCCGGGCCGGCCGCTTAAGCGACGCCTATAAAAAATAGGTTGCATGCTAGGCCTAGCGCTGCCAGTCCATCTTCGCTAGCCTGTGCTGCGTCAGTCCAGCGCTGCGCTGCGTAACGGCCGCC
modifications: Synp-RTV-015
notes: 5 HRE1 elements spaced by 40 bp and minimal promoter MP1
CHO-GSK1SV cell line
  SEAP activity in normoxia: almost no SEAP activity
  inducibility after 24 hours in hypoxia (rank): lowest
HEK293-T
  inducibility after 24 hours in hypoxia (rank): lowest
  luciferase activity in normoxia: almost no luciferase activity
  relative rank of promoter strength: weakest

B2: HV3C: synthetic hypoxia-inducible promoter, SEQ ID NO: 85/87; 4 HRE3 elements and CMV minimal promoter (nucleic acid)
DNA: GATCTTTGTATTTAATTAAGACCTTGAGTACGTGCGTCTCTGCACGTATGGCGATTAAGACCTTGAGTACGTGCGTCTCTGCACGTATGGCGATTAAGACCTTGAGTACGTGCGTCTCTGCACGTATGGCGATTAAGACCTTGAGTACGTGCGTCTCTGCACGTATGGCGATTAATCCATATGCAGGTCTATATAAGCAGAGCTCGTTTAGTGAACCGTCAGATCGCCTAGATACGCCATCCACGCTGTTTTGACCTCCATAGAAGATCGCCACC
modifications: Synp-HV3C
notes: 4 HRE3 elements and CMV minimal promoter
CHO-GSK1SV cell line
  SEAP activity in normoxia: almost no SEAP activity
  inducibility after 24 hours in hypoxia (rank): highest
HEK293-T
  inducibility after 24 hours in hypoxia (rank): highest
  luciferase activity in normoxia: almost no luciferase activity
  relative rank of promoter strength: strongest
